# Measured values reported in patent US20240049668A1 (VILMORIN AND CIE, published 2024).
# Biological target: T1, Movement Protein of ToBRFV (Tomato Brown Rugose Fruit Virus …, UniProt A0A0S2SZW1 1-266)
# T1 sequence: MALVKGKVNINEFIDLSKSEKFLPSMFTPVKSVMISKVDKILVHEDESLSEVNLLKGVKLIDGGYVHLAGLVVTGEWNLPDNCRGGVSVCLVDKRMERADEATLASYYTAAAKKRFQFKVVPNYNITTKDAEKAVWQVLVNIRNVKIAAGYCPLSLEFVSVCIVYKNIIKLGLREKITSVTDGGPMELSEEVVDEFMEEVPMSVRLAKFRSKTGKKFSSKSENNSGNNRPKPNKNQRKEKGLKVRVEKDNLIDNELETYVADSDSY
# Experiment: cell-based or functional assay
row,Binder,HR to MP Rugose [HR scale 0-4]
1,"TM-2-2 variant pJL 511_1 (767 S, 769 A, 848 R) (receptor) MAEILLTSVINKSVEIAGNLLIQEGKRLYWLKEDIDWLQREMRHIRSYVDNAKAKEAGGDSRVKNLLKDIQELAGDVEDLLDDFLPKIQQSNKFNYCLKRSSFADEFAMEIEKIKRRVVDIDRIRKTYNIIDTDNNNDDCVLLDRRRLFLHADETEIIGLDDDFNMLQAKLLNQDLHYGVVSIVGMPGLGKTTLAKKLYRLIRDQFECSGLVYVSQQPRASEILLDIAKQIGLTEQKMKENLEDNLRSLLKIKRYVILLDDIWDVEIWDDLKLVLPECDSKVGSRMIITSRNSNVGRYIGGESSLHALQPLESEKSFELFTKKIFNFDDNNSWANASPDLVNIGRNIVGRCGGIPLAIVVTAGMLRARERTEHAWNRVLESMGHKVQDGCAKVLALSYNDLPIASRPCFLYFGLYPEDHEIRAFDLINMWIAEKFIVVNSGNRREAEDLAEDVLNDLVSRNLIQLAKRTYNGRISSCRIHDLLHSLCVDLAKESNFFHTAHDAFGDPGNVARLRRITFYSDNVMIEFFRSNPKLEKLRVLFCFAKDPSIFSHMAYFDFKLLHTLVVVMSQSFQAYVTIPSKFGNMTCLRYLRLEGNICGKLPNSIVKLTRLETIDIDRRSLIQPPSGVWESKHLRHLCYRDYGQACNSCFSISSFYPNIYSLHPNNLQTLMWIPDKFFEPRLLHRLINLRKLGILGVSNSTVKMLSIFSPVLKALEVLKLSFSSDPSEQIKLSSYPHIAKLHLNVNRTMALNSQSFPPNLIKLTLASFAVDRYILAVLKTFPKLRKLKMFICKYNEEKMDLSGEANGYSFPQLEVLHIHSPNGLSEVTCTDDVSMPKLKKLLLTGFHRRISLSERLKKLSK",0
2,"TM-2-2 variant pJL 511_5 (767 Y wt, 769 S wt, 848 R) (receptor) MAEILLTSVINKSVEIAGNLLIQEGKRLYWLKEDIDWLQREMRHIRSYVDNAKAKEAGGDSRVKNLLKDIQELAGDVEDLLDDFLPKIQQSNKFNYCLKRSSFADEFAMEIEKIKRRVVDIDRIRKTYNIIDTDNNNDDCVLLDRRRLFLHADETEIIGLDDDFNMLQAKLLNQDLHYGVVSIVGMPGLGKTTLAKKLYRLIRDQFECSGLVYVSQQPRASEILLDIAKQIGLTEQKMKENLEDNLRSLLKIKRYVILLDDIWDVEIWDDLKLVLPECDSKVGSRMIITSRNSNVGRYIGGESSLHALQPLESEKSFELFTKKIFNFDDNNSWANASPDLVNIGRNIVGRCGGIPLAIVVTAGMLRARERTEHAWNRVLESMGHKVQDGCAKVLALSYNDLPIASRPCFLYFGLYPEDHEIRAFDLINMWIAEKFIVVNSGNRREAEDLAEDVLNDLVSRNLIQLAKRTYNGRISSCRIHDLLHSLCVDLAKESNFFHTAHDAFGDPGNVARLRRITFYSDNVMIEFFRSNPKLEKLRVLFCFAKDPSIFSHMAYFDFKLLHTLVVVMSQSFQAYVTIPSKFGNMTCLRYLRLEGNICGKLPNSIVKLTRLETIDIDRRSLIQPPSGVWESKHLRHLCYRDYGQACNSCFSISSFYPNIYSLHPNNLQTLMWIPDKFFEPRLLHRLINLRKLGILGVSNSTVKMLSIFSPVLKALEVLKLSFSSDPSEQIKLSSYPHIAKLHLNVNRTMALNSQSFPPNLIKLTLAYFSVDRYILAVLKTFPKLRKLKMFICKYNEEKMDLSGEANGYSFPQLEVLHIHSPNGLSEVTCTDDVSMPKLKKLLLTGFHRRISLSERLKKLSK",4
3,"TM-2-2 variant pJL 511_3 (767 Y, 769 A, 848 R) (receptor) MAEILLTSVINKSVEIAGNLLIQEGKRLYWLKEDIDWLQREMRHIRSYVDNAKAKEAGGDSRVKNLLKDIQELAGDVEDLLDDFLPKIQQSNKFNYCLKRSSFADEFAMEIEKIKRRVVDIDRIRKTYNIIDTDNNNDDCVLLDRRRLFLHADETEIIGLDDDFNMLQAKLLNQDLHYGVVSIVGMPGLGKTTLAKKLYRLIRDQFECSGLVYVSQQPRASEILLDIAKQIGLTEQKMKENLEDNLRSLLKIKRYVILLDDIWDVEIWDDLKLVLPECDSKVGSRMIITSRNSNVGRYIGGESSLHALQPLESEKSFELFTKKIFNFDDNNSWANASPDLVNIGRNIVGRCGGIPLAIVVTAGMLRARERTEHAWNRVLESMGHKVQDGCAKVLALSYNDLPIASRPCFLYFGLYPEDHEIRAFDLINMWIAEKFIVVNSGNRREAEDLAEDVLNDLVSRNLIQLAKRTYNGRISSCRIHDLLHSLCVDLAKESNFFHTAHDAFGDPGNVARLRRITFYSDNVMIEFFRSNPKLEKLRVLFCFAKDPSIFSHMAYFDFKLLHTLVVVMSQSFQAYVTIPSKFGNMTCLRYLRLEGNICGKLPNSIVKLTRLETIDIDRRSLIQPPSGVWESKHLRHLCYRDYGQACNSCFSISSFYPNIYSLHPNNLQTLMWIPDKFFEPRLLHRLINLRKLGILGVSNSTVKMLSIFSPVLKALEVLKLSFSSDPSEQIKLSSYPHIAKLHLNVNRTMALNSQSFPPNLIKLTLAYFAVDRYILAVLKTFPKLRKLKMFICKYNEEKMDLSGEANGYSFPQLEVLHIHSPNGLSEVTCTDDVSMPKLKKLLLTGFHRRISLSERLKKLSK",4
4,"TM-2-2 variant pJL 511_12 (767 D, 848 R) (receptor) MAEILLTSVINKSVEIAGNLLIQEGKRLYWLKEDIDWLQREMRHIRSYVDNAKAKEAGGDSRVKNLLKDIQELAGDVEDLLDDFLPKIQQSNKFNYCLKRSSFADEFAMEIEKIKRRVVDIDRIRKTYNIIDTDNNNDDCVLLDRRRLFLHADETEIIGLDDDFNMLQAKLLNQDLHYGVVSIVGMPGLGKTTLAKKLYRLIRDQFECSGLVYVSQQPRASEILLDIAKQIGLTEQKMKENLEDNLRSLLKIKRYVILLDDIWDVEIWDDLKLVLPECDSKVGSRMIITSRNSNVGRYIGGESSLHALQPLESEKSFELFTKKIFNFDDNNSWANASPDLVNIGRNIVGRCGGIPLAIVVTAGMLRARERTEHAWNRVLESMGHKVQDGCAKVLALSYNDLPIASRPCFLYFGLYPEDHEIRAFDLINMWIAEKFIVVNSGNRREAEDLAEDVLNDLVSRNLIQLAKRTYNGRISSCRIHDLLHSLCVDLAKESNFFHTAHDAFGDPGNVARLRRITFYSDNVMIEFFRSNPKLEKLRVLFCFAKDPSIFSHMAYFDFKLLHTLVVVMSQSFQAYVTIPSKFGNMTCLRYLRLEGNICGKLPNSIVKLTRLETIDIDRRSLIQPPSGVWESKHLRHLCYRDYGQACNSCFSISSFYPNIYSLHPNNLQTLMWIPDKFFEPRLLHRLINLRKLGILGVSNSTVKMLSIFSPVLKALEVLKLSFSSDPSEQIKLSSYPHIAKLHLNVNRTMALNSQSFPPNLIKLTLADFSVDRYILAVLKTFPKLRKLKMFICKYNEEKMDLSGEANGYSFPQLEVLHIHSPNGLSEVTCTDDVSMPKLKKLLLTGFHRRISLSERLKKLSK",0
5,"TM-2-2 variant pJL 511_2 (767 S, 848 R) (receptor) MAEILLTSVINKSVEIAGNLLIQEGKRLYWLKEDIDWLQREMRHIRSYVDNAKAKEAGGDSRVKNLLKDIQELAGDVEDLLDDFLPKIQQSNKFNYCLKRSSFADEFAMEIEKIKRRVVDIDRIRKTYNIIDTDNNNDDCVLLDRRRLFLHADETEIIGLDDDFNMLQAKLLNQDLHYGVVSIVGMPGLGKTTLAKKLYRLIRDQFECSGLVYVSQQPRASEILLDIAKQIGLTEQKMKENLEDNLRSLLKIKRYVILLDDIWDVEIWDDLKLVLPECDSKVGSRMIITSRNSNVGRYIGGESSLHALQPLESEKSFELFTKKIFNFDDNNSWANASPDLVNIGRNIVGRCGGIPLAIVVTAGMLRARERTEHAWNRVLESMGHKVQDGCAKVLALSYNDLPIASRPCFLYFGLYPEDHEIRAFDLINMWIAEKFIVVNSGNRREAEDLAEDVLNDLVSRNLIQLAKRTYNGRISSCRIHDLLHSLCVDLAKESNFFHTAHDAFGDPGNVARLRRITFYSDNVMIEFFRSNPKLEKLRVLFCFAKDPSIFSHMAYFDFKLLHTLVVVMSQSFQAYVTIPSKFGNMTCLRYLRLEGNICGKLPNSIVKLTRLETIDIDRRSLIQPPSGVWESKHLRHLCYRDYGQACNSCFSISSFYPNIYSLHPNNLQTLMWIPDKFFEPRLLHRLINLRKLGILGVSNSTVKMLSIFSPVLKALEVLKLSFSSDPSEQIKLSSYPHIAKLHLNVNRTMALNSQSFPPNLIKLTLASFSVDRYILAVLKTFPKLRKLKMFICKYNEEKMDLSGEANGYSFPQLEVLHIHSPNGLSEVTCTDDVSMPKLKKLLLTGFHRRISLSERLKKLSK",0
6,"TM-2-2 variant pJL 511_8 (767 D, 769 A, 848 R) (receptor) MAEILLTSVINKSVEIAGNLLIQEGKRLYWLKEDIDWLQREMRHIRSYVDNAKAKEAGGDSRVKNLLKDIQELAGDVEDLLDDFLPKIQQSNKFNYCLKRSSFADEFAMEIEKIKRRVVDIDRIRKTYNIIDTDNNNDDCVLLDRRRLFLHADETEIIGLDDDFNMLQAKLLNQDLHYGVVSIVGMPGLGKTTLAKKLYRLIRDQFECSGLVYVSQQPRASEILLDIAKQIGLTEQKMKENLEDNLRSLLKIKRYVILLDDIWDVEIWDDLKLVLPECDSKVGSRMIITSRNSNVGRYIGGESSLHALQPLESEKSFELFTKKIFNFDDNNSWANASPDLVNIGRNIVGRCGGIPLAIVVTAGMLRARERTEHAWNRVLESMGHKVQDGCAKVLALSYNDLPIASRPCFLYFGLYPEDHEIRAFDLINMWIAEKFIVVNSGNRREAEDLAEDVLNDLVSRNLIQLAKRTYNGRISSCRIHDLLHSLCVDLAKESNFFHTAHDAFGDPGNVARLRRITFYSDNVMIEFFRSNPKLEKLRVLFCFAKDPSIFSHMAYFDFKLLHTLVVVMSQSFQAYVTIPSKFGNMTCLRYLRLEGNICGKLPNSIVKLTRLETIDIDRRSLIQPPSGVWESKHLRHLCYRDYGQACNSCFSISSFYPNIYSLHPNNLQTLMWIPDKFFEPRLLHRLINLRKLGILGVSNSTVKMLSIFSPVLKALEVLKLSFSSDPSEQIKLSSYPHIAKLHLNVNRTMALNSQSFPPNLIKLTLADFAVDRYILAVLKTFPKLRKLKMFICKYNEEKMDLSGEANGYSFPQLEVLHIHSPNGLSEVTCTDDVSMPKLKKLLLTGFHRRISLSERLKKLSK",0
